For orientation: stoichiometry N means a count of units in the complex or per binding partner.

Series [1] addresses Arabidopsis thaliana Fructosamine-3-kinase homolog (AtFN3K), wild type (Arabidopsis thaliana) (UniProt Q9LEW8). As to the kind of experiment: SEC. On the technique in general: In gel filtration, larger molecules generally elute earlier.
For series [2], the target named is AtFN3K C32A/C236A/C196A triple cysteine mutant (Arabidopsis thaliana). As to the kind of experiment: SEC.
The target is the same in series [3]. As to the kind of experiment: AUC.
Series [4] concerns the molecule itself. Kind of series: non-reducing SDS-PAGE.

Molecule “Arabidopsis thaliana Fructosamine-3-kinase homolog (AtFN3K), wild type (from UniProt Q9LEW8 31-326) (enzyme)” registered a stoichiometry N in series [1] of 2.

On to “AtFN3K C32A/C236A/C196A triple cysteine mutant (enzyme)”, for which the stoichiometry N in series [2] and in series [3] was 2 in each case.

B1: Recombinant His-HsFN3K (human Fructosamine-3-kinase), wild type (enzyme, UniProt Q9H479 1-309, looked up)
chain: MEQLLRAELRTATLRAFGGPGAGCISEGRAYDTDAGPVFVKVNRRTQARQMFEGEVASLEALRSTGLVRVPRPMKVIDLPGGGAAFVMEHLKMKSLSSQASKLGEQMADLHLYNQKLREKLKEEENTVGRRGEGAEPQYVDKFGFHTVTCCGFIPQVNEWQDDWPTFFARHRLQAQLDLIEKDYADREARELWSRLQVKIPDLFCGLEIVPALLHGDLWSGNVAEDDVGPIIYDPASFYGHSEFELAIALMFGGFPRSFFTAYHRKIPKAPGFDQRLLLYQLFNYLNHWNHFGREYRSPSLGTMRRLLK
As for B1, in series [4], the binding result is “binds”.

These data come from doi:10.1101/2020.01.13.904870 (bioRxiv, 2020).
